# Source: IntAct's records for PubMed 20531392
# B1: Peroxisomal biogenesis factor 19 (Homo sapiens), P40855 (parent)
# chain: MAAAEEGCSVGAEADRELEELLESALDDFDKAKPSPAPPSTTTAPDASGPQKRSPGDTAKDALFASQEKFFQELFDSELASQATAEFEKAMKELAEEEPHLVEQFQKLSEAAGRVGSDMTSQQEFTSCLKETLSGLAKNATDLQNSSMSEEELTKAMEGLGMDEGDGEGNILPIMQSIMQNLLSKDVLYPSLKEITEKYPEWLQSHRESLPPEQFEKYQEQHSVMCKICEQFEAETPTDSETTQKARFEMVLDLMQQLQDLGHPPKELAGEMPPGLNFDLDALNLSGPPGASGEQCLIM
# B2: Peroxisomal biogenesis factor 19 (Homo sapiens), P40855 (parent)
# chain: B1 chain
# partner: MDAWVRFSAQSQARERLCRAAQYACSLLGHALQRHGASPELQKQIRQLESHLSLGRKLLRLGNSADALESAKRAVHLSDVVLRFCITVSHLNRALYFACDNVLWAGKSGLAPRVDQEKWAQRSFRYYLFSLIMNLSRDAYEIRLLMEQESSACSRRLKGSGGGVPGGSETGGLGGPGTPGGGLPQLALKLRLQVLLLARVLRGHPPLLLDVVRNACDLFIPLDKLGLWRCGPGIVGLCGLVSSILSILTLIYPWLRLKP
# Variants of: B1
# Settings: with pex13_human PEX13, Q92968
# Sequence of pex13_human PEX13, Q92968 (Q92968 whole entry): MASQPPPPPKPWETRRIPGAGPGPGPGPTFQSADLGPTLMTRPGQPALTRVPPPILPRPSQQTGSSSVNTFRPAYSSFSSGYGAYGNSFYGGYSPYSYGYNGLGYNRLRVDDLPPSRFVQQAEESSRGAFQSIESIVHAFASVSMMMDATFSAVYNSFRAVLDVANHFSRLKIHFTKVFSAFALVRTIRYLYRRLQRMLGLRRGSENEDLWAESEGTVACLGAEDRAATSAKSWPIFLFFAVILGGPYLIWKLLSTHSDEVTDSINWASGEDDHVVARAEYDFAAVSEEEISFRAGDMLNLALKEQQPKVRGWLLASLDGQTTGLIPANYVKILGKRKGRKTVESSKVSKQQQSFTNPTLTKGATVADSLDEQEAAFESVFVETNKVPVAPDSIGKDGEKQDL
row,effect of a mutation on the interaction,Variant
1,disrupting interaction,I178P

# Variants of: B1
# Settings: with pex13_human PEX13, Q92968
# Remark: another data set of the same source
row,effect of a mutation on the interaction,Variant
1,decreasing interaction,I178W

# Variants of: B1
# Settings: with pex13_human PEX13, Q92968
# Remark: another data set of the same source
row,effect of a mutation on the interaction,Variant
1,disrupting interaction,L182W

# Variants of: B1
# Settings: with pex13_human PEX13, Q92968
# Remark: another data set of the same source
row,effect of a mutation on the interaction,Variant
1,decreasing interaction,L182P

# Variants of: B2
# Settings: with px11b_human PEX11B
row,effect of a mutation on the interaction,Variant
1,disrupting interaction,I178W

# Variants of: B2
# Settings: with px11b_human PEX11B
# Remark: another data set of the same source
row,effect of a mutation on the interaction,Variant
1,disrupting interaction,L182P
